Entries after “also recorded” stand apart in the source; their conditions may differ. Non-standard residues stand in square brackets, D forms with d. No end group written: not given here. pS = N[C@@H](COP(=O)(O)O)C(=O)O
Tests used:
p38 MAPKα (MAPK14) = p38 MAPKα (MAPK14) (Homo sapiens, UniProt Q16539); test: SelectScreen kinase profiling; type: biochemical; conditions: peptide 100 μM, single concentration
Procedure: FIGS. 14A and 14B show kinase profiling of polypeptides. NiPp, scr3NiPp, and NiPp3 were profiled against 490 kinases at 100 uM using the SelectScreen Kinase Profiling Service (www.thermofisher.com). […] NiPp inhibits MSK1 and p38MAPK alpha by >60%. These two kinases are central to the p38MAPK kinase signaling cascade that play important roles in stress and inflammatory responses. NiPp-specific inhibitory activity to p38 MAPK were not detected for NiPp3 (non-phosphorylated) or scr3NiPp (scrambled) polypeptides.
(§1) Kinase profiling. NiPp was dissolved in DMSO, screened at a single concentration of 100 μM using in vitro kinase assays (SelectScreen Kinase Profiling Service; ThermoFisher Scientific, Madison WI) including the Z'LYTE and Adapta kinase activity assays and the LanthaScreen Eu Kinase Binding Assay). Candidate interactions were predicted using STRING Version 11 (www.string-db-org) with the human database at confidence=0.7.
As injury leads to increased p38 MAPK phosphorylation and decreased Niban phosphorylation, one of the mechanisms by which NiPp restores function after endothelial injury can be kinase inhibition. A kinase profiling was performed using three different profiling platforms that measure activity and kinase/substrate binding. […]

rat aorta = test: Endothelial-dependent relaxation of rat aorta after cytokine (IL1β / cytomix) injury; type: cell-based; conditions: 2 hrs; for endothelial function (percent relaxation to carbachol) after IL1β injury: IL1β 50 ng/ml, peptide 100 μM; for endothelial function (percent relaxation to carbachol) after cytokine injury: IL1β alone 50 ng/ml or cytomix (IL1β, TNFa, IFNg), peptide 500 μM
Procedure: Freshly isolated rat aorta (RA) was cut into rings and suspended in the muscle bath. Tissues were then treated with either IL1β alone (50 ng/ml) or cytomix (IL1β 50 ng/ml, TNFa, 10 ng/ml, IFNg 50 ng/ml) in the absence or presence of NiPp (500 μM) for 2 hrs, contracted with PE, and then treated with escalating doses of carbachol (CCH; 10^−8 to 10^−5M). The percent relaxation was determined as a change to the maximal PE-induced contraction. n=5-7 rats. *p<0.05 in two-way ANOVA with Tukey post-test. NiPp restores cytokines-induced endothelial dysfunction in RA.
Freshly isolated rat aorta (RA) was cut into rings and suspended in the muscle bath. Tissues were then treated with the cytokine IL1β (50 ng/ml) in the absence or presence of NiPp, NiPp3, or scr3NiPp (100 μM) for 2 hrs, contracted with PE, and then treated with escalating doses of carbachol (CCH; 10^−8 to 10^−5 M). The percent relaxation was determined as a change to the maximal PE-induced contraction. n=5-7 rats. *p<0.05 in two-way ANOVA with Tukey post-tests. There were significant differences between IL1β-treated vs ctrl or NiPp-treated RA.
Freshly isolated rat aorta (RA) was cut into rings and suspended in the muscle bath. Tissues were then treated with either IL1β alone (50 ng/ml) or cytomix (IL1β 50 ng/ml, TNFa, 10 ng/ml, IFNg 50 ng/ml) in the absence or presence of NiPp (500 μM) for 2 hrs, contracted with PE, and then treated with escalating doses of carbachol (CCH; 10−8 to 10−5 M).
Freshly isolated rat aorta (RA) was cut into rings and suspended in the muscle bath. Tissues were then treated with the cytokine IL1β (50 ng/ml) in the absence or presence of NiPp, NiPp3, or scr3NiPp (100 μM) for 2 hrs, contracted with PE, and then treated with escalating doses of carbachol (CCH; 10^−8 to 10^−5 M). NiPp3 (SEQ ID NO:77) is a control polypeptide containing non-phosphorylated sequence of X2 of NiPp. scr3NiPp3 (SEQ ID NO:79) is a control polypeptide containing scrambled sequence of X2 of NiPp.

p38 MAPK δ isoform = target: T1, p38 MAPK δ isoform (Homo sapiens, UniProt O15264); test: SelectScreen kinase profiling; type: biochemical; conditions: NiPp 100 μM
T1 sequence (O15264 1-365): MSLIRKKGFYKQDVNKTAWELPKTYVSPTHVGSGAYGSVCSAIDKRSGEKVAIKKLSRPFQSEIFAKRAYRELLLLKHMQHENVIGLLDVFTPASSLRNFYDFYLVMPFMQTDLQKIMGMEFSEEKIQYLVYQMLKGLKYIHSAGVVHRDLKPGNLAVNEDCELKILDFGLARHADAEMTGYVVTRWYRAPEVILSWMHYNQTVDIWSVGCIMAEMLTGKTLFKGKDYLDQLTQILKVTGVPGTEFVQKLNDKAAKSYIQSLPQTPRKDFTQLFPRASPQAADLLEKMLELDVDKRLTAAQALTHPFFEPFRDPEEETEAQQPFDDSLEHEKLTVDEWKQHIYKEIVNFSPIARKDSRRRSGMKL
Procedure: as §1
(§2) Since NiPp treatment was associated with decreased phosphorylation of p38 MAPK in RA, a mechanism of NiPp function can kinase inhibition. Therefore, a kinase profiling assay was performed to determine the effect of NiPp on the activity of a panel of kinases in vitro. The top two kinases inhibited by NiPp were MSK1 and p38 MAPKα. Inhibition to the p38 MAPKα isoform appeared to be specific as inhibition by NiPp to the other isoforms (β, δ, and γ) in the kinaseprofiling screen were only at 5, 3, and 3% respectively. Despite high sequence homology, the isoforms have difference in tissue expression, upstream kinase activators and downstream substrates. The p38 MAPKα isoform, initially identified as a protein that underwent phosphorylation in response to endotoxin treatment and hyperosmolarity shock, plays a role in endothelial dysfunction in that inhibition of this isoform leads to improved endothelial function in animal models of cardiovascular diseases including cardiac hypertrophy, balloon injury, salt/fat induced hypertension and in hypercholesterolemic patients. The α-isoform is also a key regulator of pro-inflammatory cytokine production and itself can be activated by IL1-β. MSK1, a downstream kinase of the p38 MAPK activation (FIG. 19), has complex cell-dependent roles in inflammatory responses. In endothelial cells, MSK1 promotes CREB activation in response to TNFα.

p38 MAPK β isoform = p38 MAPK β isoform (Homo sapiens, UniProt Q15759); test: SelectScreen kinase profiling; type: biochemical; conditions: NiPp 100 μM
Procedure: as §1, §2

p38 MAPK γ isoform = target: T2, p38 MAPK γ isoform (Homo sapiens, UniProt P53778); test: SelectScreen kinase profiling; type: biochemical; conditions: NiPp 100 μM
T2 sequence (P53778 1-367): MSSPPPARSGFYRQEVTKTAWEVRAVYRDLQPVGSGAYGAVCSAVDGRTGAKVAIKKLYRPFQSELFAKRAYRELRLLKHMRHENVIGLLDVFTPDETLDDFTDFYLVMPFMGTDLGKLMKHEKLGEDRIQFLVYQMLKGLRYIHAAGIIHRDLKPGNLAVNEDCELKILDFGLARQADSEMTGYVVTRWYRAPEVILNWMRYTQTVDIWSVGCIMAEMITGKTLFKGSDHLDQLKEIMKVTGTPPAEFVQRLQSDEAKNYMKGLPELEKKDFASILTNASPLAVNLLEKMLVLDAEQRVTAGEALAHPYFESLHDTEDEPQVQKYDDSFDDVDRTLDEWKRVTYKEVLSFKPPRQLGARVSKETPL
Procedure: as §1, §2

Chain of p38 MAPKα (MAPK14) (Q16539 whole entry): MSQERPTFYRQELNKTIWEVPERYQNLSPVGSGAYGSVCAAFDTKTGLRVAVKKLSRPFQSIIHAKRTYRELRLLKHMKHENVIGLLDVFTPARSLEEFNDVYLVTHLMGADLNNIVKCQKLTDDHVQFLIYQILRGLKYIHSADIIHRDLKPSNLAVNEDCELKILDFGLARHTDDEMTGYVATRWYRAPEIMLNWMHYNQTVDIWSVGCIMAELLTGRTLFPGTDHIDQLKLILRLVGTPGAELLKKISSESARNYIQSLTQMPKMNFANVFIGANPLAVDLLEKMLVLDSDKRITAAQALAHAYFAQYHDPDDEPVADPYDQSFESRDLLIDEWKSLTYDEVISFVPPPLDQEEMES
Chain of p38 MAPK β isoform (Q15759 whole entry, canonical isoform): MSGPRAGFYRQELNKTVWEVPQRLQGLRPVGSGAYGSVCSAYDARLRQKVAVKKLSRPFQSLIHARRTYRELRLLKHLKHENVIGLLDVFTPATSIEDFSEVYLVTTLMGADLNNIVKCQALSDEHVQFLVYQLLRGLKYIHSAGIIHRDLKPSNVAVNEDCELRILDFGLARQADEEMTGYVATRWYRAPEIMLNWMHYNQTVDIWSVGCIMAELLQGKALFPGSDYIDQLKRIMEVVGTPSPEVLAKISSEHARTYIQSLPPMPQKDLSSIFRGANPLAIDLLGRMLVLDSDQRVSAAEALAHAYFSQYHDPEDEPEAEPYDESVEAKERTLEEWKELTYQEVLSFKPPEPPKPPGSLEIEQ

YARAAARQARAAGSPPLA(pS)AIARR (YARAAARQARAAGSPPLA[pS]AIARR) [scr3NiPp]
% inhibition of p38 MAPKα (p38 MAPKα (MAPK14)): not detected | endothelial function (percent relaxation to carbachol) after IL1β injury (rat aorta): did not restore | endothelial function (percent relaxation to carbachol) after IL1β injury (rat aorta; listed as scr3NiPp3): failed to restore

YARAAARQARASPAARRA(pS)AILPG (YARAAARQARASPAARRA[pS]AILPG) [NiPp, Cell-permeant phosphopeptide mimetic of Niban: transduction domain … conjugated to the region surrounding serine 602 of Niban]
endothelial function (percent relaxation to carbachol) after IL1β injury (rat aorta): restores | endothelial function (percent relaxation to carbachol) after cytokine injury (rat aorta): improved; also recorded: restores | % inhibition of p38 MAPK δ isoform (p38 MAPK δ isoform): 3% | % inhibition of p38 MAPK β isoform (p38 MAPK β isoform): 5% | % inhibition of p38 MAPK γ isoform (p38 MAPK γ isoform): 3%

YARAAARQARASPAARRASAILPG (not fully specified (residue 19)) [NiPp3]
% inhibition of p38 MAPKα (p38 MAPKα (MAPK14)): not detected | endothelial function (percent relaxation to carbachol) after cytokine injury (rat aorta): significant improvement

— patent publication US12583895B2, “Polypeptides for restoring endothelial function and methods of use thereof” (Vanderbilt University, priority 2019, dated 2026)
